Data published in the RNAGym collection of RNA variant scans (doi:10.1073/pnas.2313332121).
Variants at the floor of the assay were thinned out.

B1: TPR 5TU (parent)
chain: GGAUCUUCUCGAUCUAACAAAAAAGACAAAUCUGCCACAAAGCUUGAGAGCAUCUUCGGAUGCAGAGGCGGCAGCCUUCGGUGGCGCGAUAGCGCCAACGUUCUCAACUAUGACACGCAAAACGCGUGCUCCGUUGAAUGGAGUUUAUCAUG

Variants of: B1
Test: polymerase ribozyme fitness, log enrichment relative to wild type (log ratio); higher = more active; in vitro selection for triplet polymerase activity
How it was run: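 In triplicate, a single round of in vitro selection was run on each mutant library, PCR-built and transcribed, covering one subunit of a heterodimeric triplet polymerase ribozyme. Frozen incubation at −7 °C followed annealing with a biotinylated primer, partner subunit and triplets, and extended constructs were then gel-excised, streptavidin-captured and taken through RT-PCR. Fitness is the logarithm of genotype enrichment over wild-type enrichment, from inverse-variance-weighted replicate averages of Illumina-sequenced inputs and outputs. […] only genotypes with ≥10 input reads and ≥1 read per output were kept.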

First: GGAUCUUCUCGAUCUAACAAAAAAGACAAAUCUGCCACAAAGCUUGAGAGCAUCUUCGGAUGCAGAGGCGGCAGCCUUCGGUGGUGCGAUAGCGCCAACGCUCUCAACUAUGACACGCAAAACGCGUGCUCCGUUGAAUGGAGUUUAUCAUG [C85U U101C]
Second: GGAUCUUCUCGAUCUAACAAAAAAGACAAAUCUGCCACAAAGCUUGAGAGCAUCUUCGGAUGCAGAGGCGGCAGCCUUCGGUGGUGCGAUAGCGCCAACGUUCUCAACUAUGACACGCAAAACGCGUGCUCCGUUGAAUCGAGUUUAUCAUG [C85U G140C]
The “polymerase ribozyme fitness (log ratio)” value of the first is higher: -0.749 for the first, -2.76 for the second.

Compared with GGAUCUUCUCGAUCUAACAAAAAAGACAAAUCUGCCACAAAGCUUGAGAGCAUCUUCGGAUGCAGAGGCGGCAGCCUUCGGUGGUGCAAUAGCGCCAACGUUCUCAACUAUGACACGCAAAACGCGUGCUCCGUUGAAUGGAGUUUAUCAUG [C85U G88A], GGAUCUUCUCGAUCUAACAAAAAAGACAAAUCUGCCACAAAGCUUGAGAGCAUCUUCGGAUGCAGAGGCGGCAGCCUUCGGUGGUGCGAUAGCGCCAACGUUCUCAACUAUGACACGCAAAACGCGUGCUCCGUUGAAUGAAGUUUAUCAUG [C85U G141A] is higher in “polymerase ribozyme fitness (log ratio)” value: -3.73 for the first, -0.0572 for the second.

Going from GGAUCUUCUCGAUCUAACAAAAAAGACAAAUCUGCCACAAAGCUUGAGAGCAUCUUCGGAUGCAGAGGCGGCAGCCUUCGGUGGUUCGAUAGCGCCAACGUUCUUAACUAUGACACGCAAAACGCGUGCUCCGUAGAAUGGAGUUUAUCCUG [C85U G86U C105U U135A A150C] to GGAUCUUCUCGAUCUAACAAAAAAGACAAAUCUGCCACAAAGCUUGAGAGCAUCUUCGGAUGCAGAGGCGGCAGCCUUCGGUGGUGCGAUAGCGCCAACGUUCUCAACUAUGACACGCAAAACGCGUGCUCCGUUAAAUGGAGUUUAUCAUG [C85U G136A], the “polymerase ribozyme fitness (log ratio)” value rises from at most -4.2 to 0.767.

Compared with GGAUCUUCUCGAUCUAACAAAAAAGACAAAUCUGCCACAAAGCUUGAGAGCAUCUUCGGAUGCAGAGGCGGCAGCCUUCGGUGGUGCGAUAGCGCCAACGUUCUCAACUAUGACACGCAAAACGAGUGCUCCGUUGAAUGGAGUUUAUCAUG [C85U C125A], GGAUCUUCUCGAUCUAACAAAAAAGACAAAUCUGCCACAAAGCUUGAGAGCAUCUUCGGAUGCAGAGGCGGCAGCCUUCGGUGGUGCGAUAGCUCCAACGUUCUCAACUAUGACACGCAAAACGCGUGCUCCGUUGAAUGGAGUUUAUCAUG [C85U G94U] is higher in “polymerase ribozyme fitness (log ratio)” value: -1.45 for the first, 0.0431 for the second.

Compared with GGAUCUUCUCGAUCUAACAAAAAAGACAAAUCUGCCACAAAGCUUGAGAGCAUCUUCGGAUGCAGAGGCGGCAGCCUUCGGUGGUGCGAUAGCGCCAACGUUCUCAACUAUGACACGUAAAACGCGUGCUCCGUUGAAUGUAGUUUAUCAUG [C85U C118U G141U], GGAUCUUCUCGAUCUAACAAAAAAGACAAAUCUGCCACAAAGCUUGAGAGCAUCUUCGGAUGCAGAGGCGGCAGCCUUCGGUGGUGCGAUAGCGCCAACGUUCUCAACUAUGACACGCAAAACGCGUGCUCCGUUGAAUUGAGUUCAUCAUG [C85U G140U U146C] is lower in “polymerase ribozyme fitness (log ratio)” value: 0.748 for the first, -2.87 for the second.

Going from GGAUCUUCUCGAUCUAACAAAAAAGACAAAUCUGCCACAAAGCUUGAGAGCAUCUUCGGAUGCAGAGGCGGCAGCCUUCGGUGGUGCGAUAGCGCCAACGUUCUCAACUAUGACACGCAAAAUGCGCGCUCCGUUGAAUGGAGUUUAUCAUG [C85U C123U U127C] to GGAUCUUCUCGAUCUAACAAAAAAGACAAAUCUGCCACAAAGCUUGAGAGCAUCUUCGGAUGCAGAGGCGGCAGCCUUCGGUGGUGCGAUAGCGCCAACGUUCUCAACUAUGACACGCAAAACGCGUGCUCCGUAGAAUGGAGUUUAUCAUG [C85U U135A], the “polymerase ribozyme fitness (log ratio)” value rises from -1.83 to -0.52.

Going from GGAUCUUCUCGAUCUAACAAAAAAGACAAAUCUGCCACAAAGCUUGAGAGCAUCUUCGGAUGCAGAGGCGGCAGCCUUCGGUGGUGCGAUAGCGCCAACGUUCUCAACUAUGACACGCAAAACGCGUGCUCCGUCGAAUGGAGUUUAUCAUG [C85U U135C] to GGAUCUUCUCGAUCUAACAAAAAAGACAAAUCUGCCACAAAGCUUGAGAGCAUCUUCGGAUGCAGAGGCGGCAGCCUUCGGUGGUGCGACAGCGCCAACGUUAUCAACUAUGACACGCAAAACGCGUGCUCCGUUGAAUGGAGUUUAUCAUG [C85U U90C C103A], the “polymerase ribozyme fitness (log ratio)” value falls from -2.09 to at most -4.2.

Going from GGAUCUUCUCGAUCUAACAAAAAAGACAAAUCUGCCACAAAGCUUGAGAGCAUCUUCGGAUGCAGAGGCGGCAGCCUUCGGUGGUGCGAUAGCGCCAACGUUCACAACUAUGACACGCAAAACGCGUGCUCCGUUGAAUGGAGAUUAUCAUG [C85U U104A U144A] to GGAUCUUCUCGAUCUAACAAAAAAGACAAAUCUGCCACAAAGCUUGAGAGCAUCUUCGGAUGCAGAGGCGGCAGCCUUCGGUGGUGCGAUAGCGCCAACGUUCUCAACUAUGACACGCAAAACGCAUGCUCCGUUGAAUGGAGUUUAUCAUG [C85U G126A], the “polymerase ribozyme fitness (log ratio)” value rises from -0.68 to 0.641.

First: GGAUCUUCUCGAUCUAACAAAAAAGACAAAUCUGCCACAAAGCUUGAGAGCAUCUUCGGAUGCAGAGGCGGCAGCCUUCGGUGGUGCGAUAGCGCCAACGUUCUCAACUAUGACACGCAAAACGCUUGCUCCGUUGAAUGGAGUUUAUCAUG [C85U G126U]
Second: GGAUCUUCUCGAUCUAACAAAAAAGACAAAUCUGCCACAAAGCUUGAGAGCAUCUUCGGAUGCAGAGGCGGCAGCCUUCGGUGGUGCGAUAGCGCCAACGUUCUCAACUAUGACACGCAAAACGCCUGCUCCGUUGAAUGGAGUUUAUCAUG [C85U G126C]
The “polymerase ribozyme fitness (log ratio)” value of the first is lower: -1.6 for the first, -1.23 for the second.

With GGAUCUUCUCGAUCUAACAAAAAAGACAAAUCUGCCACAAAGCUUGAGAGCAUCUUCGGAUGCAGAGGCGGCAGCCUUCGGUGGUGCGAUAGCGCCAACGUUCUCAACUAUGACACGCAAAACACGUGCUCCGUUGAAUGCAGUUUAUCAUG [C85U G124A G141C] the “polymerase ribozyme fitness (log ratio)” value was -0.515.
